The values below come from US9199234.

Test [1] addresses Thyroid Stimulating Hormone (TSH) (UniProt P01215). Kind of test: FRET competition on Alexa-488-labelled antigen (taken as TSH); excess unlabelled antibody first; competitor: BHQ-labelled ME130.
For test [2] the target is unchanged. Kind of test: i-STAT sandwich immunoassay, recombinant TSH; row antibody on capture beads; detection ALP conjugate: TSH Ab 544.
Test [3] has the same target. Kind of test: i-STAT sandwich immunoassay, recombinant TSH; row antibody on capture beads; detection ALP conjugate: ME130.
The target of test [4] is Luteinizing Hormone (LH) (UniProt P01215). Kind of test: i-STAT sandwich, 0.4 mIU/L TSH spiked with LH, signal increase over TSH alone; capture: row antibody; detection conjugate: 5409.
Test [5] deals with Thyroid Stimulating Hormone (TSH) (UniProt P01215). Kind of test: FRET quenching titration in solution: BHQ-10-labelled antibody, Alexa-Fluor 488-labelled antigen.
The target of test [6] is Follicle Stimulating Hormone (FSH) (UniProt P01215). The test is described as above.
Test [7] deals with Chorionic Gonadotropin (CG) (UniProt P01215). The test is described as above.
Test [8] addresses Luteinizing Hormone (LH) (UniProt P01215). The description is as above.
Test [9] has as its target Thyroid Stimulating Hormone (TSH) (UniProt P01215). Kind of test: FRET competition on Alexa-488-labelled antigen (taken as TSH); excess unlabelled antibody first; competitor: BHQ-labelled TSH Ab 544.
Test [10] has the same target. Kind of test: FRET competition on Alexa-488-labelled antigen (taken as TSH); excess unlabelled antibody first; competitor: BHQ-labelled M4.
For test [11] the target is unchanged. Kind of test: i-STAT sandwich immunoassay, recombinant TSH; row antibody on capture beads; detection ALP conjugate: M4.
Test [12] has the same target. Kind of test: i-STAT sandwich immunoassay, recombinant TSH; row antibody on capture beads; detection ALP conjugate: 414B.
For test [13] the target is unchanged. Kind of test: i-STAT sandwich immunoassay, recombinant TSH; row antibody on capture beads; detection ALP conjugate: 5409.
Test [14] has the same target. Kind of test: FRET competition on Alexa-488-labelled antigen (taken as TSH); excess unlabelled antibody first; competitor: BHQ-labelled 414B.
In test [15] the target is Chorionic Gonadotropin (CG) (UniProt P01215). Kind of test: i-STAT sandwich, 0.4 mIU/L TSH spiked with CG, signal increase over TSH alone; capture: row antibody; detection conjugate: 5409.
Test [16] has as its target Thyroid Stimulating Hormone (TSH) (UniProt P01215). Kind of test: FRET competition on Alexa-488-labelled antigen (taken as TSH); excess unlabelled antibody first; competitor: BHQ-labelled 5409.
The target in test [17] is Follicle Stimulating Hormone (FSH) (UniProt P01215). Kind of test: i-STAT sandwich, 0.4 mIU/L TSH spiked with FSH, signal increase over TSH alone; capture: row antibody; detection conjugate: 5409.
Test [18] has as its target Thyroid Stimulating Hormone (TSH) (UniProt P01215). Kind of test: FRET competition on Alexa-488-labelled antigen (taken as TSH); excess unlabelled antibody first; competitor: BHQ-labelled T25C.
Test [19] has as its target Luteinizing Hormone (LH) (UniProt P01215). Kind of test: i-STAT LH-detecting cartridge (LH 5304 capture beads, 414B conjugate); polystyrene LH 5304 scavenger beads in the sample; signal without beads = 100%.
Test [20] deals with Thyroid Stimulating Hormone (TSH) (UniProt P01215). Kind of test: i-STAT sandwich immunoassay, recombinant TSH; row antibody on capture beads; detection ALP conjugate: T25C.
Test [21] concerns the target Chorionic Gonadotropin (CG) (UniProt P01215). Kind of test: i-STAT sandwich, 0.4 mIU/L TSH spiked with CG, signal increase over TSH alone; capture: row antibody; detection conjugate: T25C.
Test [22] concerns the target Follicle Stimulating Hormone (FSH) (UniProt P01215). Kind of test: i-STAT sandwich, 0.4 mIU/L TSH spiked with FSH, signal increase over TSH alone; capture: row antibody; detection conjugate: ME130.
For test [23], the target named is Luteinizing Hormone (LH) (UniProt P01215). Kind of test: i-STAT sandwich, 0.4 mIU/L TSH spiked with LH, signal increase over TSH alone; capture: row antibody; detection conjugate: ME130.
The target of test [24] is Chorionic Gonadotropin (CG) (UniProt P01215). Kind of test: i-STAT sandwich, 0.4 mIU/L TSH spiked with CG, signal increase over TSH alone; capture: row antibody; detection conjugate: ME130.
For test [25], the target named is Luteinizing Hormone (LH) (UniProt P01215). Kind of test: i-STAT sandwich, 0.4 mIU/L TSH spiked with LH, signal increase over TSH alone; capture: row antibody; detection conjugate: T25C.
The target of test [26] is Follicle Stimulating Hormone (FSH) (UniProt P01215). Kind of test: i-STAT sandwich, 0.4 mIU/L TSH spiked with FSH, signal increase over TSH alone; capture: row antibody; detection conjugate: T25C.
The target is the same in test [27]. Kind of test: i-STAT sandwich, 0.4 mIU/L TSH spiked with FSH, signal increase over TSH alone; capture: row antibody; detection conjugate: TSH Ab 544.
The target in test [28] is Chorionic Gonadotropin (CG) (UniProt P01215). Kind of test: i-STAT sandwich, 0.4 mIU/L TSH spiked with CG, signal increase over TSH alone; capture: row antibody; detection conjugate: TSH Ab 544.
Test [29] addresses Luteinizing Hormone (LH) (UniProt P01215). Kind of test: i-STAT sandwich, 0.4 mIU/L TSH spiked with LH, signal increase over TSH alone; capture: row antibody; detection conjugate: TSH Ab 544.
Test [30] concerns the target Chorionic Gonadotropin (CG) (UniProt P01215). Kind of test: i-STAT sandwich, 0.4 mIU/L TSH spiked with CG, signal increase over TSH alone; capture: row antibody; detection conjugate: 414B.
Test [31] deals with Follicle Stimulating Hormone (FSH) (UniProt P01215). Kind of test: i-STAT sandwich, 0.4 mIU/L TSH spiked with FSH, signal increase over TSH alone; capture: row antibody; detection conjugate: 414B.
Test [32] deals with Luteinizing Hormone (LH) (UniProt P01215). Kind of test: i-STAT sandwich, 0.4 mIU/L TSH spiked with LH, signal increase over TSH alone; capture: row antibody; detection conjugate: 414B.

What is called Kd is the free concentration of one partner at which half of the binding sites on the other are occupied at equilibrium, for simple one-to-one binding.

As for “signaling mouse monoclonal antibody Fitzgerald Cat#10-T25C”, the relative fluorescence in test [1] is 0.97; in test [9], 0.97; in test [10] it was 0.92; in test [14], 0.97; in [16] it was 0.95; in [18], 1. Besides, the electrochemical current of sandwich immunoassay in [2] is 0.83 nA; in test [3] it was 0.68 nA; in [11], 40.9 nA; in test [12], 0.82 nA; in test [13] it was 49.7 nA. This substance also returned an LH CR (%) in [4] of 9.89%. Moreover, the Kd in test [5] came to 0.08 nM; in test [6], 300 nM; in [7] it was 40 nM; in test [8], 35 nM. The substance also yielded a CG CR (%) in test [15] of 13.7%. The FSH CR (%) in [17] is 6.25%.

In [19], “Biospacific LH 5304 monoclonal antibody (mus beta-LH, Catalog #5304 SP-5)” came in with a signal remaining after scavenger beads (%) of 4%.

Regarding AbCAM ME-130 mouse monoclonal antibody, the relative fluorescence in test [1] was 1; in test [9] it was 0.82; in [10], 0.77; in [14], 0.99; in test [16], 0.82; in test [18], 0.88. For the same substance, the electrochemical current of sandwich immunoassay in [2] was 10.8 nA; in test [11], 50.5 nA; in test [20], -0.1 nA; in test [13] it was 54.7 nA. Besides, in [4], the LH CR (%) came out at 11.1%. Also, the Kd turned out to be 0.04 nM in test [5], 70 nM in [6], 45 nM in test [7] and 54 nM in test [8]. In [15], this substance came in with a CG CR (%) of 11.8%. The FSH CR (%) in test [17] turned out to be 3.9%.

“TSH capture mouse monoclonal antibody Biospacific Cat#5409 SPTNE-5”: the CG CR (%) is 0.96% in test [21] and 0.78% in test [24]. The relative fluorescence in test [1] was 0.78; in test [9], 0.93; in [10], 0.9; in [14] it was 0.88; in [16] it was 1; in test [18], 0.78. The electrochemical current of sandwich immunoassay was 1.41 nA in [2], 53.6 nA in test [3], 15.2 nA in test [11] and 34.6 nA in [20]. For the same substance, the Kd is 0.1 nM in [5], 1000 nM in test [6], 500 nM in [7] and 1000 nM in test [8]. The FSH CR (%) was 2.43% in test [22] and 0.65% in test [26]. Also, the LH CR (%) is 10.1% in test [23] and 3.76% in test [25].

With “Seradyn anti-alpha-LH monoclonal antibody (Seradyn, Cat#MIT0414B)”, the relative fluorescence in test [1] amounted to 0.86; in test [9], 0.83; in test [10] it was 0.75; in test [14], 1; in test [16] it was 0.81; in [18], 0.76. Also, the values for the electrochemical current of sandwich immunoassay in [2], in [11] and in test [13] were 10.2 nA, 41.3 nA and 40.3 nA, respectively. In addition, the LH CR (%) is 348% in test [4] and 467% in test [29]. Also, the Kd came out at 0.04 nM in test [5], 0.1 nM in test [6], 0.05 nM in [7] and 0.05 nM in [8]. Moreover, the CG CR (%) in [15] turned out to be 84.6%; in [28] it was 39.2%. The FSH CR (%) in test [17] worked out at 260%; in [27] it was 219%.

On to “TSH Antibody 544 (Abbott Diagnostics Division)”, for which the relative fluorescence in [1] was determined as 0.72; in [9], 1; in test [10], 0.92; in test [14] it was 0.89; in test [16] it was 0.96; in test [18] it was 0.71. This substance had a CG CR (%) in test [30] of 117%. The electrochemical current of sandwich immunoassay stood at 34.9 nA in [3]; 0.11 nA in test [11]; 25 nA in test [12]; 22.4 nA in [20]; 7.98 nA in [13]. The Kd in test [5] came to 1.31 nM; in test [6] it was 1000 nM; in test [7], 210 nM; in test [8] it was 1000 nM. Also, the FSH CR (%) in test [31] is 7.15%. Besides, in test [32], the LH CR (%) is 11.8%.

Regarding “Fitzgerald 10C-CR2151M4 mouse monoclonal antibody”, the relative fluorescence in [1] stood at 0.76; in test [9], 0.98; in [10], 1; in [14], 0.9; in test [16], 0.94; in test [18], 0.74. Moreover, the electrochemical current of sandwich immunoassay turned out to be 0 nA in [2], 39.9 nA in test [3], 22.5 nA in test [20] and 20.7 nA in test [13]. Further, the Kd in test [5] was found to be 0.18 nM; in test [6], 210 nM; in test [7] it was 554 nM; in [8], 300 nM.
